Each substance was assayed against His-SUMO-tagged SH3 domain of c-Src (UniProt P12931) (assay: pull-down; His-SUMO-c-Src-SH3 as bait on Ni2+ beads, cleaved ChoKα constructs as probes; equimolar (1:1, 25 µM); 200 mM KCl, 30 mM imidazole pH 8.5, 25 mM Tris pH 8.5, 10 mM MgCl2; three washes; SDS-PAGE, Coomassie; band intensities by ImageJ).

Choline kinase alpha Δ49, wild type, sequence (P35790 50-457, stated change not applied): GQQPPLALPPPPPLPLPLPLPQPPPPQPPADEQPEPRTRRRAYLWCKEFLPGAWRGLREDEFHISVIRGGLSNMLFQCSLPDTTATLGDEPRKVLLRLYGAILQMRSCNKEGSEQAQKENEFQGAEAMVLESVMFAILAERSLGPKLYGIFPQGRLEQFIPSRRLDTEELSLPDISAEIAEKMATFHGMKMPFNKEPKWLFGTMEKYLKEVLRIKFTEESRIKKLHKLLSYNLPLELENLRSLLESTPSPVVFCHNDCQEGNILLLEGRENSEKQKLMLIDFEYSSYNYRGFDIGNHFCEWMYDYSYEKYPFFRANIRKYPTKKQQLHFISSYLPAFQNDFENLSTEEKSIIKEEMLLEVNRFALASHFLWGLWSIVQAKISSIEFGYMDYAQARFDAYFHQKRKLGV
Choline kinase alpha Δ49 P(72,73)A, sequence (P35790 other isoform, or with tags, fused parts or gaps mutant): as the sequence (P35790 50-457, stated change not applied) above, with P23A, P24A counted along it
Choline kinase alpha Δ49 P(61,62)A, sequence (P35790 other isoform, or with tags, fused parts or gaps mutant): as the sequence (P35790 50-457, stated change not applied) above, with P12A, P13A counted along it
Choline kinase alpha Δ49 P(59,60)A, sequence (P35790 other isoform, or with tags, fused parts or gaps mutant): as the sequence (P35790 50-457, stated change not applied) above, with P10A, P11A counted along it

| ratio of the ChoKα band intensity to the His-SUMO-cSrcSH3 band intensity | Substance |
| --- | --- |
| 0.7 | Choline kinase alpha Δ49 P(59,60)A (from UniProt P35790 50-457) (domain or fragment) |
| 0.2 | Choline kinase alpha Δ49 P(61,62)A (from UniProt P35790 50-457) (domain or fragment) |
| 0.88 | Choline kinase alpha Δ49 P(72,73)A (from UniProt P35790 50-457) (domain or fragment) |
| 0.69 | Choline kinase alpha Δ49, wild type (from UniProt P35790 50-457) (domain or fragment) |
